Key:
[1] = molecular target: factor present in the activated CD3+ selected human T-cell conditioned media; assay: cell-based or functional assay
[2] = molecular target: MPL-zalpha11 chimera (MPL extracellular and transmembrane domains fused to the zalpha11 intracellular signaling domain) (human); assay: cell-based or functional assay

| Substance | inhibition of conditioned-medium-driven BaF3/Zalpha11 cell growth; soluble receptor concentration giving complete inhibition [1] [µg/mL] | titration of soluble receptor; lowest concentration completely inhibiting BaF3/Zalpha11 growth [1] [µg/mL] | proliferation of BaF3/MPL-zalpha11 cells (Alamar Blue), fold over background (fold over background) [2] |
| --- | --- | --- | --- |
| zalpha11-Fc4 soluble receptor (zalpha11 extracellular domain fused C-terminally to human IgG Fc, Fc4) (from UniProt Q9HBE5 20-237) (Fc fusion) | 10 | 1.5 | – |
| thrombopoietin (TPO) (ligand) | – | – | 10 |

From patent US20030148447A1
